The binders below were run against T1, FcγRIIIa extracellular domain, C-terminal His tag (human, UniProt P08637 17-208) (assay: SPR, binding activity relative to GpH7-A5/GpH7-B3/GpL16-k0 (=100)).
T1 construct: extracellular domain; also called 3a
T1 sequence (P08637 other isoform, or with tags, fused parts or gaps): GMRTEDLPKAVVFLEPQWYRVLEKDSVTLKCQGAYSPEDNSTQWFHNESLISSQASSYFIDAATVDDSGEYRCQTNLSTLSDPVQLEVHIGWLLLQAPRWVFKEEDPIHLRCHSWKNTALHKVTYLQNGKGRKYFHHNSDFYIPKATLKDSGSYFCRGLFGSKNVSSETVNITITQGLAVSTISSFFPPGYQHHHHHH

He/Con 3a	Binder
80.8%	GpH7-A5/GpH7-B3 variant L328_06M/GpL16-k0 (antibody, human IgG1, kappa, He Ab; copies: 1 + 1 + 2) heavy 1: not shown heavy 2: not shown light: DIVMTQSPLSLPVTPGEPASISCQASESLVHSNRNTYLHWYLQKPGQSPQLLIYKVSNRFSGVPDRFSGSGSGTDFTLKISRVEAEDVGVYYCSQNTHVPPTFGQGTKVEIERTVAAPSVFIFPPSDEQLKSGTASVVCLLNNFYPREAKVQWKVDNALQSGNSQESVTEQDSKDSTYSLSSTLTLSKADYEKHKVYACEVTHQGLSSPVTKSFNRGEC
70.2%	GpH7-A5/GpH7-B3 variant L328_15Y/GpL16-k0 (antibody, human IgG1, kappa, He Ab; copies: 1 + 1 + 2) heavy 1: not shown heavy 2: not shown light: DIVMTQSPLSLPVTPGEPASISCQASESLVHSNRNTYLHWYLQKPGQSPQLLIYKVSNRFSGVPDRFSGSGSGTDFTLKISRVEAEDVGVYYCSQNTHVPPTFGQGTKVEIERTVAAPSVFIFPPSDEQLKSGTASVVCLLNNFYPREAKVQWKVDNALQSGNSQESVTEQDSKDSTYSLSSTLTLSKADYEKHKVYACEVTHQGLSSPVTKSFNRGEC
86.4%	GpH7-A5/GpH7-B3 variant L328_07I/GpL16-k0 (antibody, human IgG1, kappa, He Ab; copies: 1 + 1 + 2) heavy 1: not shown heavy 2: not shown light: DIVMTQSPLSLPVTPGEPASISCQASESLVHSNRNTYLHWYLQKPGQSPQLLIYKVSNRFSGVPDRFSGSGSGTDFTLKISRVEAEDVGVYYCSQNTHVPPTFGQGTKVEIERTVAAPSVFIFPPSDEQLKSGTASVVCLLNNFYPREAKVQWKVDNALQSGNSQESVTEQDSKDSTYSLSSTLTLSKADYEKHKVYACEVTHQGLSSPVTKSFNRGEC
73.7%	GpH7-A5/GpH7-B3 variant L328_13S/GpL16-k0 (antibody, human IgG1, kappa, He Ab; copies: 1 + 1 + 2) heavy 1: not shown heavy 2: not shown light: DIVMTQSPLSLPVTPGEPASISCQASESLVHSNRNTYLHWYLQKPGQSPQLLIYKVSNRFSGVPDRFSGSGSGTDFTLKISRVEAEDVGVYYCSQNTHVPPTFGQGTKVEIERTVAAPSVFIFPPSDEQLKSGTASVVCLLNNFYPREAKVQWKVDNALQSGNSQESVTEQDSKDSTYSLSSTLTLSKADYEKHKVYACEVTHQGLSSPVTKSFNRGEC
80.9%	GpH7-A5/GpH7-B3 variant L328_03V/GpL16-k0 (antibody, human IgG1, kappa, He Ab; copies: 1 + 1 + 2) heavy 1: not shown heavy 2: not shown light: DIVMTQSPLSLPVTPGEPASISCQASESLVHSNRNTYLHWYLQKPGQSPQLLIYKVSNRFSGVPDRFSGSGSGTDFTLKISRVEAEDVGVYYCSQNTHVPPTFGQGTKVEIERTVAAPSVFIFPPSDEQLKSGTASVVCLLNNFYPREAKVQWKVDNALQSGNSQESVTEQDSKDSTYSLSSTLTLSKADYEKHKVYACEVTHQGLSSPVTKSFNRGEC
81.5%	GpH7-A5/GpH7-B3 variant L328_04F/GpL16-k0 (antibody, human IgG1, kappa, He Ab; copies: 1 + 1 + 2) heavy 1: not shown heavy 2: not shown light: DIVMTQSPLSLPVTPGEPASISCQASESLVHSNRNTYLHWYLQKPGQSPQLLIYKVSNRFSGVPDRFSGSGSGTDFTLKISRVEAEDVGVYYCSQNTHVPPTFGQGTKVEIERTVAAPSVFIFPPSDEQLKSGTASVVCLLNNFYPREAKVQWKVDNALQSGNSQESVTEQDSKDSTYSLSSTLTLSKADYEKHKVYACEVTHQGLSSPVTKSFNRGEC
77.4%	GpH7-A5/GpH7-B3 variant L328_14T/GpL16-k0 (antibody, human IgG1, kappa, He Ab; copies: 1 + 1 + 2) heavy 1: not shown heavy 2: not shown light: DIVMTQSPLSLPVTPGEPASISCQASESLVHSNRNTYLHWYLQKPGQSPQLLIYKVSNRFSGVPDRFSGSGSGTDFTLKISRVEAEDVGVYYCSQNTHVPPTFGQGTKVEIERTVAAPSVFIFPPSDEQLKSGTASVVCLLNNFYPREAKVQWKVDNALQSGNSQESVTEQDSKDSTYSLSSTLTLSKADYEKHKVYACEVTHQGLSSPVTKSFNRGEC

Further lines, the binder ahead of its results:

Binder	He/Con 3a
GpH7-A5/GpH7-B3 variant L235_03V/GpL16-k0 (antibody, human IgG1, kappa, He Ab; copies: 1 + 1 + 2) heavy 1: not shown heavy 2: not shown light: DIVMTQSPLSLPVTPGEPASISCQASESLVHSNRNTYLHWYLQKPGQSPQLLIYKVSNRFSGVPDRFSGSGSGTDFTLKISRVEAEDVGVYYCSQNTHVPPTFGQGTKVEIERTVAAPSVFIFPPSDEQLKSGTASVVCLLNNFYPREAKVQWKVDNALQSGNSQESVTEQDSKDSTYSLSSTLTLSKADYEKHKVYACEVTHQGLSSPVTKSFNRGEC	94.6%
GpH7-A5/GpH7-B3 variant L235_16H/GpL16-k0 (antibody, human IgG1, kappa, He Ab; copies: 1 + 1 + 2) heavy 1: not shown heavy 2: not shown light: DIVMTQSPLSLPVTPGEPASISCQASESLVHSNRNTYLHWYLQKPGQSPQLLIYKVSNRFSGVPDRFSGSGSGTDFTLKISRVEAEDVGVYYCSQNTHVPPTFGQGTKVEIERTVAAPSVFIFPPSDEQLKSGTASVVCLLNNFYPREAKVQWKVDNALQSGNSQESVTEQDSKDSTYSLSSTLTLSKADYEKHKVYACEVTHQGLSSPVTKSFNRGEC	57.1%
GpH7-A5/GpH7-B3 variant L235_19Q/GpL16-k0 (antibody, human IgG1, kappa, He Ab; copies: 1 + 1 + 2) heavy 1: not shown heavy 2: not shown light: DIVMTQSPLSLPVTPGEPASISCQASESLVHSNRNTYLHWYLQKPGQSPQLLIYKVSNRFSGVPDRFSGSGSGTDFTLKISRVEAEDVGVYYCSQNTHVPPTFGQGTKVEIERTVAAPSVFIFPPSDEQLKSGTASVVCLLNNFYPREAKVQWKVDNALQSGNSQESVTEQDSKDSTYSLSSTLTLSKADYEKHKVYACEVTHQGLSSPVTKSFNRGEC	68.1%
GpH7-A5/GpH7-B3 variant L235_05P/GpL16-k0 (antibody, human IgG1, kappa, He Ab; copies: 1 + 1 + 2) heavy 1: not shown heavy 2: not shown light: DIVMTQSPLSLPVTPGEPASISCQASESLVHSNRNTYLHWYLQKPGQSPQLLIYKVSNRFSGVPDRFSGSGSGTDFTLKISRVEAEDVGVYYCSQNTHVPPTFGQGTKVEIERTVAAPSVFIFPPSDEQLKSGTASVVCLLNNFYPREAKVQWKVDNALQSGNSQESVTEQDSKDSTYSLSSTLTLSKADYEKHKVYACEVTHQGLSSPVTKSFNRGEC	68.6%
GpH7-A5/GpH7-B3 variant L235_07I/GpL16-k0 (antibody, human IgG1, kappa, He Ab; copies: 1 + 1 + 2) heavy 1: not shown heavy 2: not shown light: DIVMTQSPLSLPVTPGEPASISCQASESLVHSNRNTYLHWYLQKPGQSPQLLIYKVSNRFSGVPDRFSGSGSGTDFTLKISRVEAEDVGVYYCSQNTHVPPTFGQGTKVEIERTVAAPSVFIFPPSDEQLKSGTASVVCLLNNFYPREAKVQWKVDNALQSGNSQESVTEQDSKDSTYSLSSTLTLSKADYEKHKVYACEVTHQGLSSPVTKSFNRGEC	92.8%
GpH7-A5/GpH7-B3 variant L235_14T/GpL16-k0 (antibody, human IgG1, kappa, He Ab; copies: 1 + 1 + 2) heavy 1: not shown heavy 2: not shown light: DIVMTQSPLSLPVTPGEPASISCQASESLVHSNRNTYLHWYLQKPGQSPQLLIYKVSNRFSGVPDRFSGSGSGTDFTLKISRVEAEDVGVYYCSQNTHVPPTFGQGTKVEIERTVAAPSVFIFPPSDEQLKSGTASVVCLLNNFYPREAKVQWKVDNALQSGNSQESVTEQDSKDSTYSLSSTLTLSKADYEKHKVYACEVTHQGLSSPVTKSFNRGEC	73.2%
GpH7-A5/GpH7-B3 variant L328_02A/GpL16-k0 (antibody, human IgG1, kappa, He Ab; copies: 1 + 1 + 2) heavy 1: not shown heavy 2: not shown light: DIVMTQSPLSLPVTPGEPASISCQASESLVHSNRNTYLHWYLQKPGQSPQLLIYKVSNRFSGVPDRFSGSGSGTDFTLKISRVEAEDVGVYYCSQNTHVPPTFGQGTKVEIERTVAAPSVFIFPPSDEQLKSGTASVVCLLNNFYPREAKVQWKVDNALQSGNSQESVTEQDSKDSTYSLSSTLTLSKADYEKHKVYACEVTHQGLSSPVTKSFNRGEC	81.3%
GpH7-A5/GpH7-B3 variant L235_18N/GpL16-k0 (antibody, human IgG1, kappa, He Ab; copies: 1 + 1 + 2) heavy 1: not shown heavy 2: not shown light: DIVMTQSPLSLPVTPGEPASISCQASESLVHSNRNTYLHWYLQKPGQSPQLLIYKVSNRFSGVPDRFSGSGSGTDFTLKISRVEAEDVGVYYCSQNTHVPPTFGQGTKVEIERTVAAPSVFIFPPSDEQLKSGTASVVCLLNNFYPREAKVQWKVDNALQSGNSQESVTEQDSKDSTYSLSSTLTLSKADYEKHKVYACEVTHQGLSSPVTKSFNRGEC	65%
GpH7-A5/GpH7-B3 variant L235_04F/GpL16-k0 (antibody, human IgG1, kappa, He Ab; copies: 1 + 1 + 2) heavy 1: not shown heavy 2: not shown light: DIVMTQSPLSLPVTPGEPASISCQASESLVHSNRNTYLHWYLQKPGQSPQLLIYKVSNRFSGVPDRFSGSGSGTDFTLKISRVEAEDVGVYYCSQNTHVPPTFGQGTKVEIERTVAAPSVFIFPPSDEQLKSGTASVVCLLNNFYPREAKVQWKVDNALQSGNSQESVTEQDSKDSTYSLSSTLTLSKADYEKHKVYACEVTHQGLSSPVTKSFNRGEC	76.4%
GpH7-A5/GpH7-B3 variant L235_13S/GpL16-k0 (antibody, human IgG1, kappa, He Ab; copies: 1 + 1 + 2) heavy 1: not shown heavy 2: not shown light: DIVMTQSPLSLPVTPGEPASISCQASESLVHSNRNTYLHWYLQKPGQSPQLLIYKVSNRFSGVPDRFSGSGSGTDFTLKISRVEAEDVGVYYCSQNTHVPPTFGQGTKVEIERTVAAPSVFIFPPSDEQLKSGTASVVCLLNNFYPREAKVQWKVDNALQSGNSQESVTEQDSKDSTYSLSSTLTLSKADYEKHKVYACEVTHQGLSSPVTKSFNRGEC	67.2%
GpH7-A5/GpH7-B3 variant L235_20W/GpL16-k0 (antibody, human IgG1, kappa, He Ab; copies: 1 + 1 + 2) heavy 1: not shown heavy 2: not shown light: DIVMTQSPLSLPVTPGEPASISCQASESLVHSNRNTYLHWYLQKPGQSPQLLIYKVSNRFSGVPDRFSGSGSGTDFTLKISRVEAEDVGVYYCSQNTHVPPTFGQGTKVEIERTVAAPSVFIFPPSDEQLKSGTASVVCLLNNFYPREAKVQWKVDNALQSGNSQESVTEQDSKDSTYSLSSTLTLSKADYEKHKVYACEVTHQGLSSPVTKSFNRGEC	73.8%
GpH7-A5/GpH7-B3 variant L235_10E/GpL16-k0 (antibody, human IgG1, kappa, He Ab; copies: 1 + 1 + 2) heavy 1: not shown heavy 2: not shown light: DIVMTQSPLSLPVTPGEPASISCQASESLVHSNRNTYLHWYLQKPGQSPQLLIYKVSNRFSGVPDRFSGSGSGTDFTLKISRVEAEDVGVYYCSQNTHVPPTFGQGTKVEIERTVAAPSVFIFPPSDEQLKSGTASVVCLLNNFYPREAKVQWKVDNALQSGNSQESVTEQDSKDSTYSLSSTLTLSKADYEKHKVYACEVTHQGLSSPVTKSFNRGEC	85.6%
GpH7-A5/GpH7-B3 variant L235_06M/GpL16-k0 (antibody, human IgG1, kappa, He Ab; copies: 1 + 1 + 2) heavy 1: not shown heavy 2: not shown light: DIVMTQSPLSLPVTPGEPASISCQASESLVHSNRNTYLHWYLQKPGQSPQLLIYKVSNRFSGVPDRFSGSGSGTDFTLKISRVEAEDVGVYYCSQNTHVPPTFGQGTKVEIERTVAAPSVFIFPPSDEQLKSGTASVVCLLNNFYPREAKVQWKVDNALQSGNSQESVTEQDSKDSTYSLSSTLTLSKADYEKHKVYACEVTHQGLSSPVTKSFNRGEC	75.6%
GpH7-A5/GpH7-B3 variant L235_15Y/GpL16-k0 (antibody, human IgG1, kappa, He Ab; copies: 1 + 1 + 2) heavy 1: not shown heavy 2: not shown light: DIVMTQSPLSLPVTPGEPASISCQASESLVHSNRNTYLHWYLQKPGQSPQLLIYKVSNRFSGVPDRFSGSGSGTDFTLKISRVEAEDVGVYYCSQNTHVPPTFGQGTKVEIERTVAAPSVFIFPPSDEQLKSGTASVVCLLNNFYPREAKVQWKVDNALQSGNSQESVTEQDSKDSTYSLSSTLTLSKADYEKHKVYACEVTHQGLSSPVTKSFNRGEC	77.8%
GpH7-A5/GpH7-B3 variant L235_09D/GpL16-k0 (antibody, human IgG1, kappa, He Ab; copies: 1 + 1 + 2) heavy 1: not shown heavy 2: not shown light: DIVMTQSPLSLPVTPGEPASISCQASESLVHSNRNTYLHWYLQKPGQSPQLLIYKVSNRFSGVPDRFSGSGSGTDFTLKISRVEAEDVGVYYCSQNTHVPPTFGQGTKVEIERTVAAPSVFIFPPSDEQLKSGTASVVCLLNNFYPREAKVQWKVDNALQSGNSQESVTEQDSKDSTYSLSSTLTLSKADYEKHKVYACEVTHQGLSSPVTKSFNRGEC	88.5%

— patent US20260167699A1 (Chugai, published 2026)
